Laboratory results published in publication PMC4038614.

Key:
[1] = target: Ly49H^B6 expressed on BWZ.36 cells (BWZ-Ly49H) (mouse (B6)) (UniProt Q60682); experiment: flow cytometry on cells; association time course: BWZ transfectants with saturating m157-Fc for 30 sec/1 min to 40 min at 4°C; MFI at 40 min = 100%
[2] = target: Ly49C^B6 expressed on BWZ.36 cells (BWZ-Ly49C) (mouse (B6)) (UniProt Q64329); experiment: as above
[3] = target: Ly49H^B6 expressed on BWZ.36 cells (BWZ-Ly49H) (mouse (B6)) (UniProt Q60682); experiment: flow cytometry on cells; dissociation: BWZ transfectants labelled with saturating m157-Fc at 4°C, washed, incubated at 37°C for 5 to 90 min with excess anti-m157 antibody 6H121 to prevent re-binding; MFI at 0 min = 100%
[4] = target: Ly49C^B6 expressed on BWZ.36 cells (BWZ-Ly49C) (mouse (B6)) (UniProt Q64329); experiment: as above
[5] = target: Ly49H (B6 allele), endogenous on splenic NK cells (mouse (endogenous in splenic NK cells)) (UniProt Q60682)

UniProt Q64329, sequence (Q64329 whole entry): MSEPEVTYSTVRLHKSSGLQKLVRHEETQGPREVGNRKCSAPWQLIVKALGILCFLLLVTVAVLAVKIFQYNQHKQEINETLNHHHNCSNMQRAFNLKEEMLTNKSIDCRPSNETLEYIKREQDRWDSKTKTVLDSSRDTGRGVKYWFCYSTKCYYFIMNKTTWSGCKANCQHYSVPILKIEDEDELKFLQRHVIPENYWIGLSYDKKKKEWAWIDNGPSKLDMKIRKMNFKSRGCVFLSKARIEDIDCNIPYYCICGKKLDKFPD

## m157^G1F-Fc soluble fusion protein (Fc fusion)
[1]
  time to 50% of maximal binding: 7 min
[2]
  time to 50% of maximal binding: 5 min
[3]
  percent still bound after 90 min: > 50%
[4]
  time to 50% dissociation: 20 min
[5]
  IFN-γ production of Ly49H^+,C^- B6 NK cells exposed to RMA cells expressing m157^G1F; abolished by blocking anti-Ly49H 3D10: 15 % IFN-γ^+
  degranulation (LAMP1^+) of Ly49H^+,C^- B6 NK cells exposed to RMA cells expressing m157^G1F; abolished by blocking anti-Ly49H 3D10: 40 % LAMP1^+
